# Laboratory results taken from US20190359687A1 (Bayer, published 2019).
# Changes are numbered by the printed parent chain. Names and notes keep the numbering of the source.
# T1: human glycophorin A on human red blood cells or red blood cell membranes (human, UniProt P02724 20-150)
# T1 construct: whole, on cells; also called hRBC; human RBC membranes
# T1 sequence (looked up): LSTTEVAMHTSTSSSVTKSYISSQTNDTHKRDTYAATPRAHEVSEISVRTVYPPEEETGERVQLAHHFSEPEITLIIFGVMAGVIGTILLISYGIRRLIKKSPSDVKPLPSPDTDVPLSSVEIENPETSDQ
# T2: recombinant human glycophorin A ectodomain protein (human, UniProt P02724 20-91)
# T2 construct: 72 amino acids of the extracellular region; also called Hu-rec GPA
# T2 sequence: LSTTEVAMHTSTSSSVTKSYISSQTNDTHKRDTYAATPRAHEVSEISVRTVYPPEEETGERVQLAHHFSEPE
# T3: native human glycophorin A protein (human, UniProt P02724 20-150)
# T3 construct: mature; also called Hu-nat GPA
# T3 sequence (looked up): T1 sequence (looked up)
# B1: TPP-5837, Hu6C12-24 Fab variant VL: (S24R, A26S, S49A, P54Q, F95Y); VH: (I48M, D66G) (Fab, V domains shown)
# VH: EVQLVQSGAEVKKPGASVKVSCKASGYTFTTYTIHWVRQAPGQGLEWMGYINPSSDYTRYNPKFKGRVTLTTDKSTSTAYMELRSLRSDDTAVYYCQTGTRDYWGQGTTVTVSS
# VL: DIQLTQSPSFLSASVGDRVTITCRASSSVSYIYWFQQKPGKAPKLLIYATSTLQSGVPSRFSGSGSGTEYTLTISSLQPEDFATYYCHQRNSFPYTFGQGTKLEIKR
# notes: Built on the parental Fab TPP-4935
# B2: TPP-5697, Hu6C12-24 Fab variant VH: (D66G, L70M, T72R) (Fab, V domains shown)
# VH: B1 VH with M48I, L70M, T72R
# VL: B1 VL with R24S, S26A, A49S, Q54P, Y95F
# notes: as for B1
# B3: TPP-5674, Hu6C12-24 Fab variant VH: (I48M, L70M) (Fab, V domains shown)
# VH: B1 VH with G66D, L70M
# VL: B1 VL with R24S, S26A, A49S, Q54P, Y95F
# notes: as for B1
# B4: TPP-5699, Hu6C12-24 Fab variant VL: (S49A, P54Q) (Fab, V domains shown)
# VH: B1 VH with M48I, G66D
# VL: B1 VL with R24S, S26A, Y95F
# notes: as for B1
# B5: TPP-5676, Hu6C12-24 Fab variant VH: (I48M, D66G) (Fab, V domains shown)
# VH: B1 VH
# VL: B1 VL with R24S, S26A, A49S, Q54P, Y95F
# notes: as for B1
# B6: TPP-5840, Hu6C12-24 Fab variant VL: (S24R, A26S, S49A, P54Q, F95Y); VH: (L70M, T72R) (Fab, V domains shown)
# VH: B1 VH with M48I, G66D, L70M, T72R
# VL: B1 VL
# notes: as for B1
# B7: TPP-5703, Hu6C12-24 Fab variant VL: (N91S) (Fab, V domains shown)
# VH: B1 VH with M48I, G66D
# VL: B1 VL with R24S, S26A, A49S, Q54P, N91S, Y95F
# notes: as for B1
# B8: TPP-5696, Hu6C12-24 Fab variant VH: (D66G, L70M) (Fab, V domains shown)
# VH: B1 VH with M48I, L70M
# VL: B1 VL with R24S, S26A, A49S, Q54P, Y95F
# notes: as for B1
# B9: TPP-5337, Hu6C12-24 Fab variant VH: (Q97A, T98R) (Fab, V domains shown)
# VH: B1 VH with M48I, G66D, Q97A, T98R
# VL: B1 VL with R24S, S26A, A49S, Q54P, Y95F
# notes: as for B1
# B10: TPP-5678, Hu6C12-24 Fab variant VH: (I48M, D66G, L70M, T72R) (Fab, V domains shown)
# VH: B1 VH with L70M, T72R
# VL: B1 VL with R24S, S26A, A49S, Q54P, Y95F
# notes: as for B1
# B11: TPP-5339, Hu6C12-24 Fab variant VH: (E1Q, I48M, L70M, T72R, K74T, R84S, D89E, Q97A, T98R) (Fab, V domains shown)
# VH: B1 VH with E1Q, G66D, L70M, T72R, K74T, R84S, D89E, Q97A, T98R
# VL: B1 VL with R24S, S26A, A49S, Q54P, Y95F
# notes: as for B1
# B12: TPP-7791, affinity matured 6C12 Fab (Fab, V domains shown)
# VH: B1 VH with T33A, D56G, G66H, L70M, T72R, Q97W
# VL: DIQLTQSPSFLSASVGDRVTITCRASSSVRYIYWFQQKPGKAPKLLIYATSTLRSGVPSRFSGSGSGTEYTLTISSLQPEDFATYYCHQRNSFPYTFGQGTKLEIK
# notes: Tested as Fab
# Target: T1, human glycophorin A on human red blood …
# Assay: ELISA, Fab on coated human RBC membranes
# Procedure: These membranes are prepared by first isolating red blood cells from citrated whole blood. Citrated whole blood is layered on to Ficol and centrifuged at low speed for 20 minutes to pellet the red blood cells. The supernatant containing plasma and other blood cells is discarded and the red blood cell pellet is subsequently washed 3 times in 10 cell volumes of phosphate buffered saline (PBS). A 10 ml pellet of purified red blood cells is resuspended in 30 ml of cold low osmorality 20 mM phosphate buffer (pH7.4) and incubated for 30 mins to break open the RBC. After Centrifugation at 10,000 rpm for 30 min at 5° C. the hemoglobin containing supernatant is discarded. To the membrane pellet another 30 ml of 20 mM phosphate buffer is added and the sample centrifuged again at 10,000 rpm for 30 min at 5° C. to pellet the membrane fraction. This wash and centrifugation step is repeated another 4 times. The red blood cell membranes are then resuspended in 20 mL of PBS to achieve an equivalent of approximately 2.5E9 cells/mL and stored frozen at −20° C. Binding of antibodies to RBC ghost can be measured by ELISA in which the RBC ghost suspension (5×10⁶ in 100 ul PBS) was added to each well of flat bottom 96-well ELISA microtiter plates (2HB, Immunolon) and the plates incubated overnight at 4° C. The plates were blocked with Starting blocking buffer (Thermo Fisher) for 2 hours at room temperature (RT). Antibodies or other test molecules were added to each well and incubated for 1.5 hours at RT. After 4 washes 100 ul of an appropriate detection antibody was added to each well and incubated for 1 hour at RT. After 4 washes the detection antibody was measured using appropriate detection reagents.
row,Binder,binding in ELISA relative to parental Fab
1,B1,9.1 relative to parental Fab
2,B2,1.1 relative to parental Fab
3,B3,0.7 relative to parental Fab
4,B4,3.1 relative to parental Fab
5,B5,0.7 relative to parental Fab
6,B6,6 relative to parental Fab
7,B7,0.7 relative to parental Fab
8,B8,1 relative to parental Fab
9,B9,0.3 relative to parental Fab
10,B10,0.8 relative to parental Fab

# Target: T4, Cynomolgus monkey recombinant glycophorin A ectodomain (Cynomolgus monkey)
# T4 construct: extracellular domain
# Assay: ELISA, Fab on coated recombinant cyno GPA ectodomain
row,Binder,binding in ELISA relative to parental Fab
1,B1,1.1 relative to parental Fab
2,B2,1.2 relative to parental Fab
3,B3,1.1 relative to parental Fab
4,B4,0.8 relative to parental Fab
5,B5,1.1 relative to parental Fab
6,B6,1 relative to parental Fab
7,B7,0.9 relative to parental Fab
8,B8,1.2 relative to parental Fab
9,B10,1.2 relative to parental Fab

# Target: T2, recombinant human glycophorin A …
# Assay: ELISA, Fab on coated recombinant human GPA ectodomain
row,Binder,binding in ELISA relative to parental Fab
1,B11,0 relative to parental Fab
2,B1,4.5 relative to parental Fab
3,B2,1.3 relative to parental Fab
4,B3,1.5 relative to parental Fab
5,B4,3.2 relative to parental Fab
6,B5,1.5 relative to parental Fab
7,B6,4.2 relative to parental Fab
8,B7,1.1 relative to parental Fab
9,B8,1.2 relative to parental Fab
10,B9,0.1 relative to parental Fab
11,B10,1.1 relative to parental Fab

# Target: T3, native human glycophorin A protein
# Assay: ELISA, Fab on coated native human GPA
row,Binder,binding in ELISA relative to parental Fab
1,B11,0 relative to parental Fab
2,B1,5.2 relative to parental Fab
3,B2,1.2 relative to parental Fab
4,B3,1.4 relative to parental Fab
5,B4,3.8 relative to parental Fab
6,B5,1.3 relative to parental Fab
7,B6,5.3 relative to parental Fab
8,B7,2.1 relative to parental Fab
9,B8,1.3 relative to parental Fab
10,B9,0.1 relative to parental Fab
11,B10,1.2 relative to parental Fab

# Target: T1, human glycophorin A on human red blood …
# Assay: SPR (Biacore), Fab on human RBC membranes;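 further: human RBC membranes captured on an L1 sensor chip, Fab fragments passed over as analyte, binding kinetics read by surface plasmon resonance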
# Procedure: (§1) Kinetic analysis of the antibody binding to human red blood cell membranes was also performed using surface plasmon resonance (SPR) using a Biacore instrument. In this assay membranes prepared from human red blood cells were attached to a L1 sensor matrix and antibodies were flowed over the RBC membranes.
# The binding kinetics of the affinity matured Fab antibodies was also measured.
row,Binder,binding result
1,B12,binds

# Target: T1, human glycophorin A on human red blood …
# Assay: SPR (Biacore), Fab over human RBC membranes, 1:1 fit;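 further: human RBC membrane preparations captured on an L1 sensor surface, with antibody passed over them as analyte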
# Procedure: as §1
Binder,Kd [nM],koff [s⁻¹],kon [M⁻¹ s⁻¹]
B6,4.1,0.0046,1.1e+06
B10,37,0.041,1.1e+06
